Results from publication PMC6831621, “Structural Insight Into Chitin Degradation and Thermostability of a Novel Endochitinase From the Glycoside Hydrolase Family 18” (Frontiers in Microbiology, 2019).
Positions count from the first letter of the chain named. Names may count otherwise.

B1: Chi23 (Pseudoalteromonas aurantia; G79A) (protein)
chain: MSKTITYYNSGAVPLINASELPYDVVNLAFLSSSSNNPFNLVLSGAIAATESSFTTNTIEAIKVMQHKGQKVLISFGGATMGSNAYRSLSEDTAKLADSLASFVKNNQLDGVDIDYEDTAAFTGQAGYDGAQFLISLTQELRKRLPSPDYIISHAPQPPYLEQGGYMAGYVEVVELVGQEIDWLNVQFYNNPPWSANPDQIVSSYLNYTKLPNMSPEKVIAGFPVTQNDAGSGYMPVQTIINEVIKPIQQQSSLGGIMNWQFSSDHNGDWIKAIAQSLNS
notes: pET22b NdeI/XhoI, His-tagged (C-terminal by primer design), E. coli BL21(DE3); monomer; forward primer encodes MSKTITYYNS, reverse primer encodes AQSLNS at the C-terminus
B2: Chi23 (Pseudoalteromonas aurantia; N9A) (protein)
chain: B1 chain with N9A, A79G
notes: pET22b NdeI/XhoI, His-tagged (C-terminal by primer design), E. coli BL21(DE3); monomer; forward primer encodes …, reverse primer encodes AQSLNS at the C-terminus
B3: Chi23 (Pseudoalteromonas aurantia; D229A) (protein)
chain: B1 chain with A79G, D229A
notes: as for B1
B4: Chi23 (Pseudoalteromonas aurantia) (protein)
chain: B1 chain with A79G
notes: as for B1
B5: Chi23 (Pseudoalteromonas aurantia; Q261A) (protein)
chain: B1 chain with A79G, Q261A
notes: as for B1
B6: Chi23 (Pseudoalteromonas aurantia; Q157A) (protein)
chain: B1 chain with A79G, Q157A
notes: as for B1
B7: Chi23 (Pseudoalteromonas aurantia; N190A) (protein)
chain: B1 chain with A79G, N190A
notes: as for B1
B8: Chi23 (Pseudoalteromonas aurantia; T80A) (protein)
chain: B1 chain with A79G, T80A
notes: as for B1

substrate: CC(=O)N[C@H]1[C@H](Oc2ccc3c(C)cc(=O)oc3c2)O[C@H](CO)[C@@H](O[C@@H]2O[C@H](CO)[C@@H](O)[C@H](O)[C@H]2NC(C)=O)[C@@H]1O; test: fluorogenic substrate hydrolysis, Michaelis-Menten non-linear fit; assay type: biochemical, Pseudoalteromonas aurantia; details: McIlvaine's buffer pH 5.0, substrate 0.01-0.6 mM, temperature not given for kinetics
Source text: fluorogenic substrate hydrolysis, Michaelis-Menten non-linear fit on Chi23

Row | Protein | Km [µM] | Vmax [µmol/min/mg] | kcat [s⁻¹]
1 | B1 | 72.6 ± 6.9 | 0.0576 | 0.0295 ± 0.0013
2 | B2 | 90.1 ± 13.4 | 0.0042 | 0.0021 ± 0.0002
3 | B3 | 80.1 ± 6.3 | 0.0027 | 0.0014 ± 5e-05
4 | B4 | 64.6 ± 11.7 | 0.0107 | 0.0054 ± 0.0005
5 | B5 | 86.3 ± 6.6 | 0.0009 | 0.0005 ± 2e-05
6 | B6 | 104.1 ± 17.5 | 0.0044 | 0.0022 ± 0.0002
7 | B7 | 77.4 ± 16.2 | 4e-05 | 2e-05 ± 2e-06
8 | B8 | 85.6 ± 7.2 | 0.0144 | 0.0073 ± 0.0003
